This is an account of results in US20230287088A1 (BIONTECH, published 2023).

Residue numbers refer to the chain shown, from its start.

First the molecules themselves.
B1: P043.A.00023.E05 (antibody, V domains shown)
VH: QSLEESGGRLVTPGTPLTLTCTVSGFSLSSYAMSWVRQAPGKGLEWIGIISSSGSTYYASWAKGRFTISKTSTTVDLKITSPTTEDTATYFCARDASSRGYYYYYGMDPWGPGTLVTVSS
VL: AIQMTQSPSSLAASVGDTVTITCKASEDIGYGLNWYQQKLGIAPKLLIYGANTLESGVPSRFSGSGSETDYTLTISSVQAEDAGIYYCQQGYSTPLTFGAGTKVEIK
notes: also called 443; protein sample ID 443
B2: P043.A.00023.A08 (protein sample ID 446) (antibody, V domains shown)
VH: QSVEESGGRLVTPGTPLTLTCTVSGFSLSKYAMSWVRQAPGKGLEWIGIISSGGSTYYASWAKGRFTISKTSSTTVDLKITSPTTEDTATYFCARAGYPGYSPHYFNIWGPGTLVTVSL
VL: B1 VL with G32E, S63T, L96P
B3: P043.A.00017.E04 (antibody, V domains shown)
VH: QSVEESGGRLVTPGTPLTLTCTVSGFSLNNYAMNWVRQAPGKGLEWIGIISSSGNTYYANWAKGRFTISKTSTTVDLKITSPTTEDTATYFCARDSYPGYSPYYGMDPWGPGTLVTVSS
VL: B1 VL with G30A, A43T, D70H, S93N, L96P
B4: P043.A.00024.C11 (protein sample ID 451) (antibody, V domains shown)
VH: B1 VH with L3V, S55T, R65P, D95G, A96G, S97A, S98G, R99Y, Y102A, Y103H
VL: B1 VL
B5: P043.A.00018.C02 (protein sample ID 450) (antibody, V domains shown)
VH: B1 VH with L3V, S51N, S53G, G54R, S97T, R99I, Y103R
VL: B1 VL

For one assay, the target named is T1, His-tagged SARS-CoV S1-RBD (Sino Biologicals) (SARS-CoV, UniProt P59594 306-527).
T1 construct: domain: S1-RBD; Bought reagent
Briefly: ELISA on coated His-tagged SARS-CoV S1-RBD [D00020 Figure 8A continued]. On the technique in general: In an ELISA, binding on a coated surface is turned into a signal by an enzyme label.
With B1, the binding result was “no binding (tested: 1000 ng/ml)”.
With B2, the binding result is listed as “no binding (tested: 1000 ng/ml)”.
Regarding B3, the binding result is reported as “no binding (tested: 1000 ng/ml)”.
B4: the binding result is reported as “no binding (tested: 1000 ng/ml)”.
With B5, the binding result is listed as “no binding (tested: 1000 ng/ml)”.

The next assay deals with T2, Human-Fc-tagged SARS-CoV2 S1 recombinant protein (Sino Biologicals) (SARS-CoV-2, UniProt P0DTC2 16-685).
T2 construct: domain: S1; Bought reagent
Briefly: ELISA on coated S1-hFc, 3 µg/ml; rabbit antibody in B-cell supernatant.
The term EC50 denotes the concentration giving half of the maximal effect. As to B1, the EC50 was 16.6 ng/mL.
For B2, the EC50 is 8.5 ng/mL.
For B3, the EC50 stood at 19.6 ng/mL.
In the case of B4, the EC50 amounted to 4.8 ng/mL.
Still for that read-out and setting: then B5, with 1.7 ng/mL.

The target of the next assay is T3, Mouse-Fc-tagged SARS-CoV2 S1-RBD (Sino Biologicals) recombinant protein (SARS-CoV-2, UniProt P0DTC2 319-541).
T3 construct: domain: S1-RBD
Nature of the assay: ELISA on coated S1-RBD-mFc.
With B1, the EC50 came out at 11.2 ng/mL.
With B2, the EC50 was determined as 8.1 ng/mL.
In the case of B3, the EC50 turned out to be 8.2 ng/mL.
Take B4: the EC50 is 7 ng/mL.
With B5, the EC50 amounted to 8.2 ng/mL.

For the next assay, the target named is T3, Mouse-Fc-tagged SARS-CoV2 S1-RBD (Sino …). Nature of the assay: competition ELISA: blocks S1-RBD-mFc binding to coated ACE-2 ECD.
A word on the IC50: it is the point on the concentration scale where inhibition reaches its midpoint. For B1, the IC50 came to 0.0349 µg/mL.
With B2, the IC50 was determined as 0.0373 µg/mL.
On the same count and under the same terms, then B3, with 0.0321 µg/mL; and B4, with 0.0423 µg/mL; and B5, with 0.0433 µg/mL.

The target is the same in another assay. Described as above. The source holds these as a separate data set.
Usually IC90 stands for the point of the concentration-response curve where the effect stands at 90%. B2: the IC50 stood at 0.028 µg/mL and the 90% effect concentration (IC90) is 18 µg/mL.
Turning to B4, the IC50 came out at 0.0391 µg/mL and the IC90 was determined as 99.2 µg/mL.
For B5, the IC50 came to 0.0286 µg/mL and the IC90 is 61.2 µg/mL.

For the next assay the target is unchanged. Briefly: ELISA on coated S1-RBD-mFc. The source holds these as a separate data set.
In the case of B2, the EC50 worked out at 7 ng/mL.
Same read-out and setting: in the case of B4 it was 6.4 ng/mL; in that of B5, 7.7 ng/mL.

A further assay has the same target. Briefly: SPR, S1-RBD-mFc captured via anti-mouse-Fc antibody, 1:1 model.
Broadly, the Kd is a measure of binding affinity in units of concentration. The term koff denotes a measure of how fast the partners let go of each other. A word on the kon: it is a measure of how fast the partners come together. As for B1, the Kd was found to be 0.268 nM, the koff was 0.000263 s⁻¹ and the kon stood at 982000 M⁻¹ s⁻¹.
Take B2: the Kd worked out at 0.115 nM, the koff was determined as 0.000243 s⁻¹ and the kon was 2.12e+06 M⁻¹ s⁻¹.
As for B3, the Kd was 0.422 nM, the koff came out at 0.000327 s⁻¹ and the kon was found to be 445000 M⁻¹ s⁻¹.
Take B4: the Kd was 0.77 nM, the koff came to 0.000307 s⁻¹ and the kon amounted to 398000 M⁻¹ s⁻¹.
Taken in the same sequence, the figures for B5 were 0.398 nM, 0.000283 s⁻¹ and 714000 M⁻¹ s⁻¹.

A further assay has as its target T2, Human-Fc-tagged SARS-CoV2 S1 ….
Assay: not given
As for B1, the IC50 was found to be 8.2 ng/mL.
The same measure, in the same setting: then B2, with 4.7 ng/mL; and B3, with 9.3 ng/mL; and B4, with 3.6 ng/mL.
B5: the IC50 was found to be 1 ng/mL.
